Numbering of substitutions follows the chain as printed.
B1: human-murine chimeric PTK7 antibody ch13 (antibody, V domains shown)
VH: QVQLQQSGAELVRPGVSVKISCKGSGYTFTDYGMHWLKQSHAKSLEWIGVISPYYGDVTYNQKFKGKATMTVDKSSSTAYMELARLTSEDSAIYYCARGMGYWGQGTSVTVSS
VL: DVQITQSPSYLAASPGETITINCRASQSISKYLAWYQEKPGKTNKLLIYSGSTLQSGIPSRFSGSGSGTDFTLTISSLEPEDFAMYYCQQHNEYPWTFGGGTKLEIK
B2: humanized PTK7 antibody Hu13H3L3 (antibody, V domains shown)
VH: QVQLVQSGAEVKKPGASVKISCKGSGYTFTDYGMHWLKQAPGQGLEWIGVISPYYGDVNYNQKFQGRATMTVDKSISTAYMELSRLRSDDTAVYYCARGMGYWGQGTLVTVSS
VL: DVQITQSPSFLSASVGDRVTITCRASQSISKYLAWYQQKPGKAPKLLIYSGSTLQSGVPSRFSGSGSGTEFTLTISSLQPEDFAMYYCQQHNEYPWTFGQGTKVEIK
B3: humanized PTK7 antibody Hu13H2L0 (antibody, V domains shown)
VH: B2 VH with I20V, K38R, I48M, A68V, V72R, A92V
VL: B2 VL with V2I, I4L, M85T
B4: humanized PTK7 antibody Hu13H2L3 (antibody, V domains shown)
VH: B2 VH with I20V, K38R, I48M, A68V, V72R, A92V
VL: B2 VL
B5: humanized PTK7 antibody Hu13H3L0 (Ab13) (antibody, V domains shown)
VH: B2 VH
VL: B2 VL with V2I, I4L, M85T
B6: humanized PTK7 antibody Hu13H3L5 (antibody, V domains shown)
VH: B2 VH
VL: B2 VL with F10Y, V15P, V19I, P44N

Legend:
[1] = target: T1, PTK7 on the SK-OV-3 cell line (human ovarian cancer cells) (human, UniProt Q13308 31-1070); experiment: flow cytometry on SK-OV-3 cells, FITC goat anti-human secondary antibody, MFI
T1 construct: whole, on cells
T1 sequence (looked up): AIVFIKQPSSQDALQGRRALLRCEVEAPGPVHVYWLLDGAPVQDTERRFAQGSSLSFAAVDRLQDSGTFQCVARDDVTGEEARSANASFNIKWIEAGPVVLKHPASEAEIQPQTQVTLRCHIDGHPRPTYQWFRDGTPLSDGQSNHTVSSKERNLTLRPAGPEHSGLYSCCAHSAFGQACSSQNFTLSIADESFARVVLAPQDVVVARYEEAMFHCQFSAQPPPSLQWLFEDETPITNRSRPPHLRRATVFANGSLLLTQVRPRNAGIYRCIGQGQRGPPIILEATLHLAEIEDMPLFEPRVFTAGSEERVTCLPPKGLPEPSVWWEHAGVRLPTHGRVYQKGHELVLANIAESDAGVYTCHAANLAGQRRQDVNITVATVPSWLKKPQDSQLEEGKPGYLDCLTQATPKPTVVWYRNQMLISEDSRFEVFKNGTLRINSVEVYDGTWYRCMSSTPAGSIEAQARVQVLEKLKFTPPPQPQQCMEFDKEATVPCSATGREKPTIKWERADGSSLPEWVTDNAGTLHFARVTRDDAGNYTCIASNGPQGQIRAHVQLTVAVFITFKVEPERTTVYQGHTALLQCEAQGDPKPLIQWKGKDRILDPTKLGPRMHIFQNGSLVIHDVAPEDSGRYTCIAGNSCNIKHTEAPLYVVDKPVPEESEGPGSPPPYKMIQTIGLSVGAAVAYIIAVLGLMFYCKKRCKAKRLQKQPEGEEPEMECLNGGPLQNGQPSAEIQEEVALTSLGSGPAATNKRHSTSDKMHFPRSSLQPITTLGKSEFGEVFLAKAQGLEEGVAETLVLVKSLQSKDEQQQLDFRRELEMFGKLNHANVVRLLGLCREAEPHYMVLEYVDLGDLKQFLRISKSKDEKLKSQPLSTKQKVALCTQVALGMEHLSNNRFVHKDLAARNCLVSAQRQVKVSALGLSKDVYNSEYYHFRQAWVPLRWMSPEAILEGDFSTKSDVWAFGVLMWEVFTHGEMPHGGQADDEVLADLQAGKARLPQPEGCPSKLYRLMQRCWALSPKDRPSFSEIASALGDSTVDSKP
Method: SK-OV-3 (human ovarian cancer cells, ATCC, Catalog No. HTB-77) was digested with trypsin in a culture dish, and the digested cells were centrifuged at 1000 rpm for 5 min and then blocked with 10% goat serum (purchased from Beijing Solarbio Science & Technology Co. Ltd., Item No. SL038) for 30 min. The anti-PTK7 antibodies as prepared in Example 2 of the present disclosure were diluted in a 3-fold gradient with a starting concentration of 500 nM. At the end of dilution, the gradient diluted anti-PTK7 antibodies were added to the cells, incubated for 1 h, and washed twice with PBS. Then, FITC-labeled goat anti-human secondary antibody (purchased from Jackson ImmunoResarch, Item No. 109-545-008) was added at 1:500, incubated for 1 h, and finally washed twice with PBS. The results were analyzed by flow cytometry.

[2] = target: T2, Human PTK7 protein (Catalog No. PT7-H52H3, Acrobiosystems) (human, UniProt Q13308 31-704); experiment: ELISA, PTK7 protein immobilized on the plate, peroxidase anti-human IgG, OD450
T2 construct: Bought protein
T2 sequence (looked up): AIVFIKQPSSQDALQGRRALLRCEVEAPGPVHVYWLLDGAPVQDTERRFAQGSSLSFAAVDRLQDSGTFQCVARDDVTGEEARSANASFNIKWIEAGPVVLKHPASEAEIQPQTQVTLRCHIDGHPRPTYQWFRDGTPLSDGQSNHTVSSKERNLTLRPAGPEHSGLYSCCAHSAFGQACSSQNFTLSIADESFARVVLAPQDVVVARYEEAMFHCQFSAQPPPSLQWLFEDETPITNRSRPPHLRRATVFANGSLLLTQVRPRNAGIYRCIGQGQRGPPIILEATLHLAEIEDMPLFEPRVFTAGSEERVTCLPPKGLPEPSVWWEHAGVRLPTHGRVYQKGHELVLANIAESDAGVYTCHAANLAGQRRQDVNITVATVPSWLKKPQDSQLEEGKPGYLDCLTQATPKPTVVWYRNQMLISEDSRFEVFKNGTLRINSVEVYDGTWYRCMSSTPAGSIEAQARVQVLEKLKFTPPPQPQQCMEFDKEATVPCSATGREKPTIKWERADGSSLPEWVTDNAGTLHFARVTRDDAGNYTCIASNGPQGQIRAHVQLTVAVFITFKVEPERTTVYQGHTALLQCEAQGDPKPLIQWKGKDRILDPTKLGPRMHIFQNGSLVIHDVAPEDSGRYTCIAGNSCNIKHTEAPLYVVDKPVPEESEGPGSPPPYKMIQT
Method: (§1) Human PTK7 protein (Catalog No. PT7-H52H3, Acrobiosystems), monkey PTK7 protein (Catalog No. PT7-C52H3, Acrobiosystems), and murine PTK7 protein (Catalog No. PT7-M52H3, Acrobiosystems) were incubated at 4° C. overnight and immobilized onto a 96-well plate. The plate was then blocked by incubating at 37° C. with 1% BSA in PBS for 1 h. After blocking, the plate was washed 3 times with PBST (PBS containing 0.05% Tween 20). Serial dilutions of anti-PTK7 antibody as prepared in Example 2 of the present disclosure was prepared in a binding buffer (PBS containing 0.05% Tween20 and 0.5% BSA) and incubated with the immobilized proteins at 37° C. for 1 h. After binding, the plate was washed 3 times with PBST, incubated with peroxidase-labeled donkey anti-human IgG (Jackson ImmunoResearch) diluted at 1/15,000 in the binding buffer at 37° C. for 1 h, washed again, developed with TMB and terminated with 1M H₂SO₄. The absorbance at 450 nm-620 nm was measured.

[3] = target: T3, monkey PTK7 protein (Catalog No. PT7-C52H3, Acrobiosystems) (monkey, UniProt A0A2K5VNQ6 31-704); experiment: as above
T3 construct: Bought protein; not shown: The vendor's purification tag, probably a C-terminal His tag
T3 sequence: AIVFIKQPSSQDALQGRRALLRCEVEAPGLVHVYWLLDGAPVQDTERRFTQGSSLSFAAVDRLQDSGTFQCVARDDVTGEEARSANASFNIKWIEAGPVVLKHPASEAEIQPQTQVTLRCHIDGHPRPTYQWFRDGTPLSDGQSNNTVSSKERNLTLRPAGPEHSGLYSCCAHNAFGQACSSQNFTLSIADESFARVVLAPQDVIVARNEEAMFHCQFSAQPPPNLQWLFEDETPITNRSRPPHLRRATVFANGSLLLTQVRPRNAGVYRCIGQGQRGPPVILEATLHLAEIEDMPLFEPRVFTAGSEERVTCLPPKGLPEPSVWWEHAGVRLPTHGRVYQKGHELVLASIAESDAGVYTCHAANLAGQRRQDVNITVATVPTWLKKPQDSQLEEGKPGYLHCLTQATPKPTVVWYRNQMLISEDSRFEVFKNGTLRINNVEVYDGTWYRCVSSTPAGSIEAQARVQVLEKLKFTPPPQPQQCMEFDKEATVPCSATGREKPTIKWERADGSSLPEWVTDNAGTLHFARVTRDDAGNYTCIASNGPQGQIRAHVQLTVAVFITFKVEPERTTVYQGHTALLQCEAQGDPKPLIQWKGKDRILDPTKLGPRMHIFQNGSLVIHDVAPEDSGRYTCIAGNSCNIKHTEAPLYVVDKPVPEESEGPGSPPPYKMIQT
Method: as §1

[4] = target: T4, murine PTK7 protein (Catalog No. PT7-M52H3, Acrobiosystems) (murine, UniProt Q8BKG3 23-696); experiment: as above
T4 construct: Bought protein; also called mouse PTK7
T4 sequence (looked up): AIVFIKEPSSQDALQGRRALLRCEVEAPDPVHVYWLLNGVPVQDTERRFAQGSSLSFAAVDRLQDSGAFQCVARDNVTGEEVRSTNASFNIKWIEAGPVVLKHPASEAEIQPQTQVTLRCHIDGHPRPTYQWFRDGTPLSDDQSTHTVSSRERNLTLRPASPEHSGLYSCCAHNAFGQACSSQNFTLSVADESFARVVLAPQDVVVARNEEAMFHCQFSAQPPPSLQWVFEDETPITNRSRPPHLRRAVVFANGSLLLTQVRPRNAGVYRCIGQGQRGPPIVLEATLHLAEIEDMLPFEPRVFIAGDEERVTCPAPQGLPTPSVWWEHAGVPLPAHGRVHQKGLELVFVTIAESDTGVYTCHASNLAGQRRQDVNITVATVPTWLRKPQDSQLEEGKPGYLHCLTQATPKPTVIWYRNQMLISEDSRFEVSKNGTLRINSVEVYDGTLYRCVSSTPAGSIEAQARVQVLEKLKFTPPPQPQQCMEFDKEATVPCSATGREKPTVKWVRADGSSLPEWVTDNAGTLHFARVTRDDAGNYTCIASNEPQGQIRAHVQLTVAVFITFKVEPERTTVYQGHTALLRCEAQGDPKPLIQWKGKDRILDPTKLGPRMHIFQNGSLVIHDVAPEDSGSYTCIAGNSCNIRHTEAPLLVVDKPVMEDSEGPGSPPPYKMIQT
Method: as §1

EC50 [1] [nM]	EC50 [2] [nM]	EC50 [3] [nM]	binding result [4]	Binder
0.189	0.0571	0.0472	no binding	B1
0.156	–	–	–	B2
0.163	–	–	–	B3
0.213	–	–	–	B4
0.19	–	–	–	B5
0.161	–	–	–	B6
